The experiment concerns the target KO_CRD4+linker (human OX40 aa 147 to 214 replaced with the mouse counterparts) (human; mouse). Put plainly: flow cytometry, transfected 293F cells, column KO_CRD4+linker. Background: Flow cytometry measures light scatter and fluorescence of single cells or particles in a stream.

Sequence of KO_CRD4+linker (human OX40 aa 147 to 214 replaced with the mouse counterparts) (human; mouse) (chain, as listed by the source limits assumed, form in doubt): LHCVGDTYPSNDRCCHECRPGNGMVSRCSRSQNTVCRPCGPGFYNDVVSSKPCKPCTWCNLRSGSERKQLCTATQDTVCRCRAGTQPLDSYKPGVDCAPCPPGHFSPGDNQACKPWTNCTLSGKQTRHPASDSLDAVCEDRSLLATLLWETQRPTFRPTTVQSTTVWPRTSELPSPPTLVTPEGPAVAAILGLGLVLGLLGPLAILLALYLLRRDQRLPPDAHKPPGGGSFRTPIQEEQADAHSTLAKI

B1: 9B12 (antibody, mouse IgG1, V domains shown)
VH: EVQLQESGPSLVKPSQTLSLTCSVTGDSFTSGYWNWIRKFPGNRLEYMGYISYNGITYHNPSLKSRISITRDTSKNHYYLQLNSVTTEDTATYFCARYRYDYDGGHAMDYWGQGTLVTVSS
VL: DIQMTQTTSSLSASLGDRVTISCRASQDISNYLNWYQQKPDGTVKLLIYYTSKLHSGVPSRFSGSGSRTDYSLTITDLDQEDIATYFCQQGSALPWTFGQGTKVEIKR
For the molecule B1, the percent of cells in the Alexa Fluor 488 gate (number printed over the gate) turned out to be 52.7.

The record behind these values is US20160137740A1.
